Values quoted from earlier work in paper PMC7823800.
Where two headings read alike, the source gives them in different places.

Tests used:
[1] = target: TNF (Homo sapiens) (UniProt P01375)
[2] = target: TNF (Homo sapiens) (UniProt P01375); remark: listed apart in the source

Chain of TNF (Homo sapiens) (P01375 77-233): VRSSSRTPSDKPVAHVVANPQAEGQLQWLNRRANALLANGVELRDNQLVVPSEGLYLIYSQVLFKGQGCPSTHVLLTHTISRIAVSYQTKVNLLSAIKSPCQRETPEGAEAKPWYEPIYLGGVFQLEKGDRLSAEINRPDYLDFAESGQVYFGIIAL
Chain of TNFR2 (P20333 23-461): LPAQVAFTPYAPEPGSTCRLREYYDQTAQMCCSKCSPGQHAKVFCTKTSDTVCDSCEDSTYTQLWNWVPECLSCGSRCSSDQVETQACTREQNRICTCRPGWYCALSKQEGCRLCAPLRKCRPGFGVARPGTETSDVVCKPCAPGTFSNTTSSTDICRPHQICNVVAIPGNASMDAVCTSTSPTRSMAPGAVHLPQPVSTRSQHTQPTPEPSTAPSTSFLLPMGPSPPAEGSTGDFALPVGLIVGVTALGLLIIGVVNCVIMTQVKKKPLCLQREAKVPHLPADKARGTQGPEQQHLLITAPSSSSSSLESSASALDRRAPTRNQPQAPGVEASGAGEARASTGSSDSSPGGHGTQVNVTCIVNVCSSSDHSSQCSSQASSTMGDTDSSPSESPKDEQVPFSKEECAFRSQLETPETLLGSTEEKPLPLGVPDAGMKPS
Chain of CrmB (P0DSV7 23-349): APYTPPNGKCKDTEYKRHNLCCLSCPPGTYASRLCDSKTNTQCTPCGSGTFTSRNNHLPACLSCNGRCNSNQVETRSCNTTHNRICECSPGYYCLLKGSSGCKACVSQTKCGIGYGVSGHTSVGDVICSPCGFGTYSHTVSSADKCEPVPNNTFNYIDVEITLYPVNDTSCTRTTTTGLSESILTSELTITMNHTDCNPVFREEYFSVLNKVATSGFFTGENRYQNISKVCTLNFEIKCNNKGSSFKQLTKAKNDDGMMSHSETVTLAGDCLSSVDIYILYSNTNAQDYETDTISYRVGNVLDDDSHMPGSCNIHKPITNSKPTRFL

Row | Substance | Kd [1] [nM] | Kd [2] [nM]
1 | CrmB (from UniProt P0DSV7) | 0.28 | 
2 | TNFR2 (from UniProt P20333) |  | 0.3
